Assay results taken from publication PMC5960627.
Like-named read-outs stand apart in the source and are kept apart here.

Assays:
Test in all cases: other fluorescence titration
[1] = target: BSAT1R_(309-327), FRET biosensor with AT1R a.a. 309-327 (SMD4JM) between EYFPc and ECFP (human)
[2] = target: BSAT1R_(215-242mut), FRET biosensor with mutant AT1R a.a. 215-242 (SMD3) between EYFPc and ECFP (human)
[3] = target: BSAT1R_(125-141mut), FRET biosensor with mutant AT1R a.a. 125-141 (SMD2) between EYFPc and ECFP (human)
[4] = target: BSAT1R_(125-141), FRET biosensor with AT1R a.a. 125-141 (SMD2) between EYFPc and ECFP (human)
[5] = target: BSAT1R_(215-242), FRET biosensor with AT1R a.a. 215-242 (entire SMD3) between EYFPc and ECFP (human)
Chain of BSAT1R_(215-242), FRET biosensor with AT1R a.a. 215-242 (entire SMD3) between EYFPc and ECFP (human) (P30556 215-242): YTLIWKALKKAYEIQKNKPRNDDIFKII

[6] = target: BSAT1R_(215-232), FRET biosensor with AT1R a.a. 215-232 (part of SMD3) between EYFPc and ECFP (human)
[7] = target: BSAT1R_(309-327), FRET biosensor with AT1R a.a. 309-327 (SMD4JM) between EYFPc and ECFP (human); remark: listed apart in the source
[8] = target: BSAT1R_(309-327mut), FRET biosensor with mutant AT1R a.a. 309-327 (SMD4JM) between EYFPc and ECFP (human)

EC50(Ca2+) of the interaction, species Sp2 [1]: 3.18 µM | EC50(Ca2+) of the interaction [2]: 1.49 µM | EC50(Ca2+) of the interaction [3]: 17.6 µM | EC50(Ca2+) of the interaction [4]: 4.1 µM | EC50(Ca2+) of the interaction [5]: 0.15 µM | EC50(Ca2+) of the interaction [6]: 0.3 µM | EC50(Ca2+) of the interaction, species Sp1 [7]: 0.31 µM | EC50(Ca2+) of the interaction, species Sp2 [7]: 3.17 µM | EC50(Ca2+) of the interaction, species Sp1mut [8]: 0.77 µM | EC50(Ca2+) of the interaction, species Sp2mut [8]: 9.6 µM
Substance: Calmodulin (from UniProt P0DP23 1-149) (natural protein)
